Test results published in patent publication US10253089B2, “Matrix metalloproteinase cleavable protein polymers for cancer gene therapy” (The University of Utah Research Foundation, priority 2012, dated 2019).

Key:
[1] = system: JHU-022 head and neck cancer xenografts; assay: Quantitative viral gene expression (β-gal) in vivo, tumor and liver; parameters: species or system athymic nude (nu/nu) mice; details: 4 wt %
Protocol: Head and neck cancer xenografts were established by subcutaneously injecting 2×10^6 JHU-022 cells suspended in 200 μl Phosphate Buffer Saline (PBS) bilaterally in the flank of athymic nude (nu/nu) mice. Tumors were allowed to grow for two weeks to reach an average diameter of 7 mm. […] Virus-polymer solutions were prepared by thawing SELP and virus stocks and mixing them gently with physiological saline. Mice were anesthetized using 4 wt % isofluorane mixed with oxygen, and intratumorally injected with 25 μl of the polymer-virus solutions using a Hamilton syringe. Mice were euthanized on days 7, 14, and 21 and tumor and liver tissue were isolated. CPRG β-gal colorimetric assays were performed as described previously in the scientific literature. […] Recovered tissue lysates were then centrifuged for 45 minutes at 14,000 rpm and, subsequently, upper aqueous layers were used for β-gal quantification. […]
Polymer structures and compositions that formed robust hydrogels were selected for matrix-mediated delivery of reporter genes in a murine model of HNSCC. […] Animals were sacrificed at days 7, 14, and 21 for analysis of gene expression, and analyzed using a colorimetric tissue lysate assay for β-galactosidase. […]

[2] = system: JHU-022 tumors; assay: GDEPT (HSV-tk/GCV) efficacy study, tumor size and luciferase imaging; format: in vivo, nude mice; details: 4 wt % with virus + GCV
Protocol: In order to fully illustrate the potential of SELP as an injectable, in situ gel forming delivery system for the treatment of HNSCC solid tumors, a study was performed on the efficacy of this system using a GDEPT approach. The system chosen was herpes simplex virus thymidine kinase (HSV-tk) as the enzyme, and ganciclovir (GCV) as the prodrug. To accomplish this, a custom adenoviral construct was designed and used for this study. The construct contained genes which encode for HSV-tk and genes which encode for luciferase, a common reporter enzyme. This novel construct allowed both efficacy and biodistribution to be assessed simultaneously in vivo. Specifically, by combining these two genes in one virus, it becomes possible to track the location of transfection while simultaneously evaluating the efficacy of the treatment.
Appropriate controls were included. Luciferase expression was measured by injecting luciferin potassium salt intraperitoneally, and following appropriate time to allow distribution of luciferin the animals were imaged using a Xenogen IVIS100 imaging system (Caliper Life Sciences, Hopkinton, Mass.) which allows visualization of luciferase expression without sacrificing the animal. As a measure of efficacy the tumors were measured with calipers every 3 to 4 days. […]

[3] = molecular target: MMP-9 (Homo sapiens, UniProt P14780); assay: Hydrogel protein loss in the presence of MMP-9; format: biochemical; details: 10 wt % hydrogel, MMP-9 10 nM, two weeks
Sequence of MMP-9 (P14780 94-707): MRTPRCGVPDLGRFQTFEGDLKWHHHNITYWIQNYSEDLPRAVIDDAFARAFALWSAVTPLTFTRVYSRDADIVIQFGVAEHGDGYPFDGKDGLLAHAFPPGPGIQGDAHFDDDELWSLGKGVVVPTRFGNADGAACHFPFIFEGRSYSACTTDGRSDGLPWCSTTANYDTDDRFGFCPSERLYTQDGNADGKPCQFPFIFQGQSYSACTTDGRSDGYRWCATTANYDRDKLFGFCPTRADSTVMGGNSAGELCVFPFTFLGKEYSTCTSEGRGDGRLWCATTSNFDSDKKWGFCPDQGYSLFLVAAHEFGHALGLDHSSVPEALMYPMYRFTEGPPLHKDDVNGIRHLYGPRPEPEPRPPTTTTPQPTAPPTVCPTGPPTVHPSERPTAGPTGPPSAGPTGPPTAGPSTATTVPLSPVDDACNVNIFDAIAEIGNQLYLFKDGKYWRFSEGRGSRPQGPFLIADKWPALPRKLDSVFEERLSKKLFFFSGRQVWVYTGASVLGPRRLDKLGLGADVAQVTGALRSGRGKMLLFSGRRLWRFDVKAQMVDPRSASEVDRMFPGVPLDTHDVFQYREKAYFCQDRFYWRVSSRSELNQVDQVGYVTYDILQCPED
Protocol: The properties of hydrogels formed from SELPs are strongly dependent on the shear applied to liquid solutions of polymer prior to gelation. SELPs solubilized in phosphate buffered saline were loaded into a 1 ml luer-lock syringe connected at the hub to another 1 ml luer-lock syringe via two 27G needles, joined by a section of 0.0155″ HPLC tubing. The SELP solution was passed through this device at maximum hand pressure for five full bidirectional cycles, at which point it was used for studies.
Hydrogels were characterized for their sensitivity to MMP degradation in the context of protein loss from the gel, changes in mechanical properties, and release of model 100 nm fluorescent nanoparticles. […] Syringes were sealed with Parafilm and allowed to gel upright overnight at 37° C. […]
Protein loss was quantified using a Modified Lowry Assay Kit, and using known SELP solutions for the standard curve instead of the supplied bovine serum albumin, as SELP contains few Lowry-reactive amino acids. The mechanical properties of SELPs were evaluated in cyclic compression at 1 Hz and 1% strain, with ˜10 grams of preloading applied for 10 minutes to eliminate stress relaxation. Stress was measured using a 2 lb load cell. Release was quantified by measuring the fluorescence of release samples with an excitation/emission of 260/515. […]

B1: SELP815K: silk-elastin-like protein polymer, longer silk units, fifteen elastin units, lysine elastin unit; monomer repeated 6 times (SEQ ID NO. 21) (protein)
chain: MDPVVLQRRDWENPGVTQLNRLAAHPPFASDPMGAGSGAGAGSGAGAGSGVGVPGVGVPGVGVPGVGVPGKGVPGVGVPGVGVPGVGVPGVGVPGVGVPGVGVPGVGVPGVGVPGVGVPGVGVPGVGVPGAGAGSGAGAGSGAGAGSGAGAGSGAGAGSGAGAGAGSGAGAGSGAGAGSGVGVPGVGVPGVGVPGVGVPGKGVPGVGVPGVGVPGVGVPGVGVPGVGVPGVGVPGVGVPGVGVPGVGVPGVGVPGVGVPGAGAGSGAGAGSGAGAGSGAGAGSGAGAGSGAGAGAGSGAGAGSGAGAGSGVGVPGVGVPGVGVPGVGVPGKGVPGVGVPGVGVPGVGVPGVGVPGVGVPGVGVPGVGVPGVGVPGVGVPGVGVPGVGVPGAGAGSGAGAGSGAGAGSGAGAGSGAGAGSGAGAGAGSGAGAGSGAGAGSGVGVPGVGVPGVGVPGVGVPGKGVPGVGVPGVGVPGVGVPGVGVPGVGVPGVGVPGVGVPGVGVPGVGVPGVGVPGVGVPGAGAGSGAGAGSGAGAGSGAGAGSGAGAGSGAGAGAGSGAGAGSGAGAGSGVGVPGVGVPGVGVPGVGVPGKGVPGVGVPGVGVPGVGVPGVGVPGVGVPGVGVPGVGVPGVGVPGVGVPGVGVPGVGVPGAGAGSGAGAGSGAGAGSGAGAGSGAGAGSGAGAGAGSGAGAGSGAGAGSGVGVPGVGVPGVGVPGVGVPGKGVPGVGVPGVGVPGVGVPGVGVPGVGVPGVGVPGVGVPGVGVPGVGVPGVGVPGVGVPGAGAGSGAGAGSGAGAGSGAGAGSGAGAGSGAGAMDPGRYQDLRSHHHHHH
modifications: monomer repeated 6 times; Hybrid of Homo sapein and Bombyx mori
- tumor transfection (β-gal) compared to free virus ([1]; Ad.CMV.LacZ 5×10^8 PFU intratumoral, week one): more than 50 fold
- difference in tumor vs. liver transfection ([1]; Ad.CMV.LacZ, week two): 55 fold
- tumor regrowth / recovery observation ([2]; out to day 33): full recovery, with no evidence of a tumor out to day 33
- reduction in tumor size compared to virus in saline ([2]; over 33 days): 3 fold
- higher protein loss compared to control [3]: statistically insignificant
